In publication PMC10439915, “Development of an interfering peptide M1-20 with potent anti-cancer effects by targeting FOXM1” (Cell Death & Disease, 2023):
Non-standard residues stand in square brackets, D forms with d. No end group written: not given here.

Key:
MDA-MB-231 cells = assay: CCK-8 cell viability; type: cell-based, human; settings: 0, 10, 20, 40, 80, 160 µM, 36 h, n = 3
Protocol: (§1) Fig. 2 The screening of the FOXM1-interacting peptide M1-20. A The diagram of peptide array (P1-P9) in which peptides (20-mer) covering FOXM1_689-748 with a shifting window of five residues were conjugated to the cell-penetrating peptide TAT and produced by solid-phase peptide synthesis. The P1-P9 peptides were biotin-labeled respectively and added in MDA-MB-231 cell lysates (500 μg) which were incubated with Streptavidin Agarose Resin to pull down biotin-peptide/protein complexes. Biotin and FOXM1 proteins in samples were detected by Western Blotting with certain antibodies. 10% of cell lysates (50 μg) were used as input controls. […] The absorbance at 450 nm and the relative cell viability in each well was calculated. […] GST-tag and Biotin-tag were detected by Western Blotting with certain antibodies. […] E The curve represented the quantification of binding affinity between GFP-labeled FOXM1_1-138 and P5 or P5mut by Microscale Thermophoresis (MST, Monolith NT.115, NanoTemper). Data points indicated the fraction of FOXM1_1-138-bound peptide (ΔNormal/Amplitude) at different concentrations, and curves indicated the calculated fits. […] F The biotin signals indicated the peptide stability of P5 and M1-20 in HEK293T cell lysates analyzed by Western Blotting. The levels of peptide were quantified by Image J software and graphed with GraphPad Prism 9 (n = 3). […]

endogenous FOXM1 = molecular target: T1, endogenous FOXM1 (Homo sapiens, UniProt Q08050); assay: Biotin-peptide pull-down of endogenous FOXM1 from MDA-MB-231 cell lysates; type: binding; settings: biotin-labeled peptide, MDA-MB-231 cell lysates (500 μg), Streptavidin Agarose Resin, Western Blotting
T1 construct: endogenous in cells; host or cells: MDA-MB-231 cell lysates
T1 sequence (Q08050 1-763): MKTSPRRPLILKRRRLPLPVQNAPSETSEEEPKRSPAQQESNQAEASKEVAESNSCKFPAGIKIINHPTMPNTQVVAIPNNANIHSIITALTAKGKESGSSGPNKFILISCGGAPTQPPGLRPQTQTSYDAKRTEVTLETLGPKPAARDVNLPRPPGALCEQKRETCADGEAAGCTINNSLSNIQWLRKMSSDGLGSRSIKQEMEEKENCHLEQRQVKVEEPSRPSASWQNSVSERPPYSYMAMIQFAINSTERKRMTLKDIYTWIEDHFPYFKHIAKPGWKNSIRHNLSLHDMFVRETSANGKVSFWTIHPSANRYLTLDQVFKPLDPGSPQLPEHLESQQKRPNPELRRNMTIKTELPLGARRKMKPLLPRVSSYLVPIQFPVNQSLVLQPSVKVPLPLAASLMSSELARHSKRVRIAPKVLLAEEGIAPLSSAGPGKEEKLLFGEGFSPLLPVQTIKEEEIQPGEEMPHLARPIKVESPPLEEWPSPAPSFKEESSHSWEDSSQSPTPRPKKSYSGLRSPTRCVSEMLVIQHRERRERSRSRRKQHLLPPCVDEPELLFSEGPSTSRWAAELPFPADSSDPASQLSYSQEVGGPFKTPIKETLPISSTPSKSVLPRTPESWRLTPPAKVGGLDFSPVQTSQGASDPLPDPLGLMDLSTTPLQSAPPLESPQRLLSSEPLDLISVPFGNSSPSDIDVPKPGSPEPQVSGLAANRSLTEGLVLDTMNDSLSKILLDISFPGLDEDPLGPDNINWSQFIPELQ
Protocol: as §1

FOXM1_1-138 [1] = molecular target: T2, FOXM1_1-138 (Homo sapiens, UniProt Q08050); assay: Biotin-peptide pull-down of recombinant FOXM1_1-138; type: binding; settings: biotin-labeled peptide (10 μg), recombinant protein (50 μg), Streptavidin Agarose Resin
T2 construct: The cDNA of FOXM1(1-138aa) was PCR amplified from pCMV-FOXM1 plasmid; EGFP (C); His (pET-32a vector; Ni-Sepharose purification); made in house; host or cells: E. coli Rosetta/DE3
T2 sequence (Q08050 1-138 isoform Q08050-2): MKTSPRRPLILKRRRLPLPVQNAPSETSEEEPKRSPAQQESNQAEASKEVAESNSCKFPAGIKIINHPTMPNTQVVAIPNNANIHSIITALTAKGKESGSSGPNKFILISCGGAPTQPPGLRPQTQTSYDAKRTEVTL
Protocol: as §1

FOXM1_1-138 [2] = molecular target: T2, FOXM1_1-138; assay: Microscale thermophoresis binding of peptide to GFP-labeled FOXM1_1-138; settings: MST, Monolith NT.115, peptide 0.030 to 1000 μM in PBS with 0.05% Tween-20, 25 °C, mean of three independent measurements
Protocol: Measurements were performed by Monolith NT.115 instrument (NanoTemper). The data were analyzed by MO. Affinity Analysis v2.3 NT software (NanoTemper) to determine interaction parameters. Details were described in the supplemental materials and methods.
as §1, with “The P1-P9 peptides were biotin-labeled respectively and added in MDA-MB-231 cell lysates (500 μg) which were incubated with Streptavidin Agarose Resin to pull down biotin-peptide/protein complexes.” left out, “antibodies.” for “antibodies. 10% of cell lysates (50 μg) were used as input controls.”

[3] = molecular target: T3, GFP-labeled FOXM1_(1-138) (human, UniProt Q08050-3 1-138); assay: MST; GFP-labeled FOXM1(1-138) with peptide at different concentrations; Monolith NT.115 (NanoTemper), MO.Affinity Analysis v2.3; three independent measurements; settings: both partners purified
T3 construct: The fluorescent partner of the MST; Details are in the supplemental materials and methods
T3 sequence (looked up): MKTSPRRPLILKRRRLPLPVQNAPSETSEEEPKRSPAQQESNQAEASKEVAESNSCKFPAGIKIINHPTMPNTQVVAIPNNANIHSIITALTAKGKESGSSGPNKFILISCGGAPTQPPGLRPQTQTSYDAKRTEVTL

His-FOXM1 = molecular target: T4, His-FOXM1 (UniProt Q08050-2 1-748); assay: EMSA; plus M1-20 peptide (5 and 10 uM in legend; 0.5, 1 and 2 uM in Suppl. Methods); DNA binding not disrupted; 20 mM Tris-Cl pH 7.6, 50 mM KCl, 10% glycerol, 0.5 mM EDTA, 0.2 mM DTT, 30 min on ice; 4% native PAGE in 0.5x TBE; settings: protein: recombinant; tags: His; label: 5'-FAM on forward strand (hot); blunt
T4 sequence: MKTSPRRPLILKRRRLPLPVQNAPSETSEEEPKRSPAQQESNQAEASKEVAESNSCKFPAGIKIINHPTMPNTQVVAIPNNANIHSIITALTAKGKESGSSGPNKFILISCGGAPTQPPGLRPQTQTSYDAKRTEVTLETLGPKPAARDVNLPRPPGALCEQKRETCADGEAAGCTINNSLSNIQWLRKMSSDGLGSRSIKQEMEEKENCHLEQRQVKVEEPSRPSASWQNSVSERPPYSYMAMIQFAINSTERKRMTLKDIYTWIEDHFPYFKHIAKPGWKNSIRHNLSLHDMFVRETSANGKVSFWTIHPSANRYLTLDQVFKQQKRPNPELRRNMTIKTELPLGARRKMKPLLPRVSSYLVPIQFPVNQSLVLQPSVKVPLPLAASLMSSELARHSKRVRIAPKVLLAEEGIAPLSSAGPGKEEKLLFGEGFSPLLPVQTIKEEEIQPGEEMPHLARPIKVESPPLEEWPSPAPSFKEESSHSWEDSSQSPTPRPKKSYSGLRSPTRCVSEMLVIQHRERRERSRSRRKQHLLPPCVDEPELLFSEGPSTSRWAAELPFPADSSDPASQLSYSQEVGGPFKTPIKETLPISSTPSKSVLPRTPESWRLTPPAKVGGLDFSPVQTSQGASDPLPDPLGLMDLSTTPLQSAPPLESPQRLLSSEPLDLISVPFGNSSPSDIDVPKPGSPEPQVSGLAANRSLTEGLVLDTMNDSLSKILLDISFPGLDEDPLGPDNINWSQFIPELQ

Molecule: P5: the sequence 709-728aa of FOXM1, 20-mer conjugated with TAT cell-penetrating sequence; natural parent peptide of M1-20
- inhibition of MDA-MB-231 cells in the P1-P9 library screen (MDA-MB-231 cells): significantly inhibited MDA-MB-231 breast cancer cells in a dose-dependent manner
- interaction with endogenous FOXM1 (pull-down) (endogenous FOXM1): interacted with endogenous FOXM1 with variable affinities
- binding to recombinant FOXM1_1-138 (pull-down) (FOXM1_1-138 [1]): bind to recombinant GST-FOXM1_1-138 protein

Molecule: P5mut: P5 with three residues mutated (L721A, I723A, S724A) (LDTMNDSLSKILADAAFPGL; also: conjugated to TAT cell-penetrating sequence (as parent P5))
- KD, binding affinity to FOXM1_1-138 (FOXM1_1-138 [2]): unmeasurable

Molecule: [dL]G[dP][dF][dS][dI][dD][dL][dL][dI][dK][dS][dL][dS][dD][dN][dM][dT][dD][dL] [M1-20]
- Kd [3]: 5.66 µM

B1: FAM-labeled FOXM1 EMSA probe (dsDNA)
DNA 1: TTTGTTTATTTGTTTGTTTATTTG
DNA 2: CAAATAAACAAACAAATAAACAAA
- binding result (His-FOXM1): binds

Molecule: LDTMNDSLSKILLDISFPGL (also: conjugated to TAT cell-penetrating sequence) [P5]
- Kd [3]: 43.1 µM

Molecule: [dL]G[dP][dF][dA][dA][dD][dA][dL][dI][dK][dS][dL][dS][dD][dN][dM][dT][dD][dL] [M1-20mut]
- Kd [3]: 386 µM
